Tests used:
[1] = target: recombinant untagged VP6 of bluetongue virus, wild type (bluetongue virus (serotype of the cDNA not stated)); test: cryo-EM structure
[2] = target: T1, VP3 (WT, co-expressed with VP6);VP6 (WT) (Bluetongue virus;Bluetongue virus, UniProt D8V886;D8V892 1-901;1-329, |); test: cryo-EM
T1 sequence 1: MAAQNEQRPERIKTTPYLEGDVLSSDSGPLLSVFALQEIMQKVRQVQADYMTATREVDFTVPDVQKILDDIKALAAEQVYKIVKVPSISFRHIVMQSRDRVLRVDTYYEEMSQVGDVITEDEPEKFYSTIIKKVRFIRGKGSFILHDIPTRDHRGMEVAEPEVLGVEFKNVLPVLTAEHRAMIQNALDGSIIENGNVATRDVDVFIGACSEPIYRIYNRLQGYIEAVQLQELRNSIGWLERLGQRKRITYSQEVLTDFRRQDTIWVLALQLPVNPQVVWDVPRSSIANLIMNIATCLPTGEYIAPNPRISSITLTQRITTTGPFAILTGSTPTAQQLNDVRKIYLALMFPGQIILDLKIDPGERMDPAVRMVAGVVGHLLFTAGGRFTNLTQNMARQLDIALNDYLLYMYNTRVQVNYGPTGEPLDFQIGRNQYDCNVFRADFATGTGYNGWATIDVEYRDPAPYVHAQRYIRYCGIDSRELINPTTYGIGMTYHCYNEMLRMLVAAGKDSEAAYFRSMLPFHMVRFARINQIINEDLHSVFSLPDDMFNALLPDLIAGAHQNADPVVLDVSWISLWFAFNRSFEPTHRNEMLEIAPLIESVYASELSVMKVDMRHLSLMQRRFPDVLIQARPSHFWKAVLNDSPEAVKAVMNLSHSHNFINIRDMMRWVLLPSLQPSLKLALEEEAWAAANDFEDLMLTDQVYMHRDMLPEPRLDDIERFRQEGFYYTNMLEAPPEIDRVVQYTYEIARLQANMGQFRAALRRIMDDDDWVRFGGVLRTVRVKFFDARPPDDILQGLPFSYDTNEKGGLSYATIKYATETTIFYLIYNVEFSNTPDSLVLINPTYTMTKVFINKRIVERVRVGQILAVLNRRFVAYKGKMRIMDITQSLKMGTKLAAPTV
T1 sequence 2: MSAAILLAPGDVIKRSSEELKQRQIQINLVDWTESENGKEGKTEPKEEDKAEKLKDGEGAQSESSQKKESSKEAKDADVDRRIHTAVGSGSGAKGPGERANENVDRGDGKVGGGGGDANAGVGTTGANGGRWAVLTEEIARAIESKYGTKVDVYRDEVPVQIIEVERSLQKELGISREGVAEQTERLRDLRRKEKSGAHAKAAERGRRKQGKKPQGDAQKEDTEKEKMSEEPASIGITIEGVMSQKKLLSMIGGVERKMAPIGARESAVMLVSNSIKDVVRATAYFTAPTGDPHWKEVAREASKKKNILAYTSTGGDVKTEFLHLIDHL

[3] = target: T1, VP3 (WT, co-expressed with VP6);VP6 (WT); test: EMSA
cryo-EM structure = target: the molecule itself; test: cryo-EM structure
SEC + AUC = target: the molecule itself; test: SEC + AUC

## recombinant untagged VP6 of bluetongue virus, wild type (natural protein)
[1]
  stoichiometry N: 5

## UUUUUUUUUUUUUUUUUUUUUUUUUUUUUUUUUUUUUUUU (ssRNA) [40 nt poly-U ssRNA]
[2]
  binding result: binds

## GUUAAAAAAUCGCAUA (ssRNA) [Cy5-labeled 16 nt ssRNA]
[3]
  apparent K (half saturation): 192 nM

B1: recombinant His-tagged VP3 of bluetongue virus, wild type (natural protein)
chain: MAAQNEQRPERIKTTPYLEGDVLSSDSGPLLSVFALQEIMQKVRQVQADYMTATREVDFTVPDVQQILDDIKALAAAQVYKIVKVPSTSFRHIVTQSRDRVLRVDTYYEEMSQVGDVITEDEPEKFYSTIIKKVRFIRGKGSFILHDIPARDHRGMEVAEPEVLGVEFKNVLPVLTAEHRAMIQNALDGSIIENGNVATRDVDVFIGACSEPFYRIYNRFQGYIEAVQLQELRNSIGWLERLGQRKRITYSQEVLTDFRRQDMIWVLALQLPVNPQVVWDVPRSSIANLIMNIATCLPTGEYIAPNPRISSITLTQRITTTGPFAILTGSTPTAQQLNDVRKIYLALMFPGQIILDLKIDPGERMDPAVRMVAGVVGHLLFTAGGRFTNLTQNMARQLDIALNDYLLYMYNTRVQVNYGPTGEPLDFQIGRNQYDCNVFRADFATGTGYNGWATIDVEYRDPAPYVHAQRYIRYCGIDSRELINPTTYGIGMTYHCYNEMLRMLVAAGKDSEAAYFRSMLPFHMVRFARINQIINEDLHSVFSLPDDMFNALLPDLIAGAHQNADPVVLDVSWISLWFAFNRSFEPTHRNEMLEIAPLIESVYASELSVMKVDMRHLSLMQRRFPDVLIQARPSHFWKAVLNDSPEAVKAVMNLSHSHNFINIRDMMRWVLLPSLQPSLKLVLEEEAWAAANDFEDLMLTDQVYMHRDMLPEPRLDDIERFRQEGFYYTNMLEAPPEIDRVVQYTYEIARLQANMGQFRAALRRIMDDDDWIGFGGVLRTVRVKFFDARPPDDILQGLPFSYDTNEKGGLSYATIKYATETTIFYLIYNVEFSNTPDSLVLINPTYTMTKVFINKRIVERVRVGQILAVLNRRFVAYKGKMRIMDITQSLKMGTKLAAPTV
cryo-EM structure
  stoichiometry N: 4
SEC + AUC
  stoichiometry N: ~4

Reference: paper PMC11182334 (Cell, 2024)
